Experimental data: patent US20100098681A1 (Janssen / Centocor, published 2010)

B1: P190-MMB construct 4314 (Fc fusion)
chain: GGDPCTWEVWGRECLQGGGSCPPCPAPEAAGGPSVFLFPPKPKDTLMISRTPEVTCVVVDVSQEDPEVQFNWYVDGVEVHNAKTKPREEQFNSTYRVVSVLTVLHQDWLNGKEYKCKVSNKGLPSSIEKTISKAKGQPREPQVYTLPPSQEEMTKNQVSLTCLVKGFYPSDIAVEWESNGQPENNYKTTPPVLDSDGSFFLYSRLTVDKSRWQEGNVFSCSVMHEALHNHYTQKSLSLSLGK
notes: GG, P190, Flex, human IgG4 hinge-CH2-CH3 with two Leu to Ala changes
B2: SEQ ID NO: 23 (S18 hit, pIX phage) (peptide)
chain: GGGAGCIAFVDVVYCARGGGSGGSGG
notes: pIX phagemid display; not shown: M13 phage coat protein pIX (MSVL...)
B3: SEQ ID NO: 27 (S18 hit, pIX phage) (peptide)
chain: GGGDSCIQFANLLYCAIGGGSGGSGG
notes: as for B2
B4: SEQ ID NO: 25 (S18 hit, pIX phage) (peptide)
chain: GGGRDCIIFDKTVYCVIGGGSGGSGG
notes: as for B2
B5: P173 phage (S18, pIX) (peptide)
chain: GGGTDCVIFGLETYCLRGGGSGGSGG
notes: pIX phagemid display; also called PP173; not shown: M13 phage coat protein pIX (MSVL...)
B6: SEQ ID NO: 28 (S18 hit, pIX phage) (peptide)
chain: GGGTDCIRFGVLWYCLVGGGSGGSGG
notes: as for B2
B7: SEQ ID NO: 35 (S18 hit, pIX phage) (peptide)
chain: GGGRGCVVFGDNIYCIVGGGSGGSGG
notes: as for B2
B8: SEQ ID NO: 30 (S18 hit, pIX phage) (peptide)
chain: GGGAYCSFVAGDLVCQVGGGSGGSGG
notes: as for B2
B9: SEQ ID NO: 26 (S18 hit, pIX phage) (peptide)
chain: GGGKHCILFEKTVYCAKGGGSGGSGG
notes: as for B2
B10: SEQ ID NO: 24 (S18 hit, pIX phage) (peptide)
chain: GGGAKCIAFGNSVYCLNGGGSGGSGG
notes: as for B2
B11: SEQ ID NO: 33 (S18 hit, pIX phage) (peptide)
chain: GGGTDCVRFGETIYCIVGGGSGGSGG
notes: as for B2
B12: SEQ ID NO: 34 (S18 hit, pIX phage) (peptide)
chain: GGGYDCVSFGAVAYCPQGGGSGGSGG
notes: as for B2
B13: SEQ ID NO: 32 (S18 hit, pIX phage) (peptide)
chain: GGGSDCVLFGSKLFCSAGGGSGGSGG
notes: as for B2
B14: SEQ ID NO: 29 (S18 hit, pIX phage) (peptide)
chain: GGGRACITFGKVVYCEVGGGSGGSGG
notes: as for B2
B15: P179 phage (S19, pIX) (peptide)
chain: GGGGPCVLIRDYYLLCLEGGGSGGSGG
notes: pIX phagemid display; also called PP179; not shown: M13 phage coat protein pIX (MSVL...)
B16: P175 phage (S15, pIX) (peptide)
chain: GGGLPDDSLPELICKVRGGGGSGGSGG
notes: pIX phagemid display; also called PP175; not shown: M13 phage coat protein pIX (MSVL...)
B17: SEQ ID NO: 49 (S20 hit, pIX phage) (peptide)
chain: GGGLLCATTSFRDWFVCFTGGGSGGSGG
notes: as for B2
B18: SEQ ID NO: 45 (S20 hit, pIX phage) (peptide)
chain: GGGDSCCSFLTDGTVVCSLGGGSGGSGG
notes: as for B2
B19: SEQ ID NO: 46 (S20 hit, pIX phage) (peptide)
chain: GGGYICTPSDIDSWYICYLGGGSGGSGG
notes: as for B2
B20: SEQ ID NO: 43 (S20 hit, pIX phage) (peptide)
chain: GGGPTCDSATRRVLTICADGGGSGGSGG
notes: as for B2
B21: SEQ ID NO: 44 (S20 hit, pIX phage) (peptide)
chain: GGGWMCFLEGYGASLMCQCGGGSGGSGG
notes: as for B2
B22: SEQ ID NO: 47 (S20 hit, pIX phage) (peptide)
chain: GGGSVCVGTAFPGWMVCGPGGGSGGSGG
notes: as for B2
B23: P190 phage, pIX display (190-phagemid) (peptide)
chain: GGGDPCTWEVWGRECLQGGGSGGSGG
notes: pIX phagemid display, on average one peptide per phage particle; also called PHPEP190; pIX-190; not shown: M13 phage coat protein pIX (MSVL...)
B24: SEQ ID NO: 38 (S19 hit, pIX phage) (peptide)
chain: GGGYDCMIRADGSLICWCGGGSGGSGG
notes: as for B2
B25: P180 phage (S19, pIX) (peptide)
chain: GGGMICYLVDSGNIICYKGGGSGGSGG
notes: pIX phagemid display; also called PP180; not shown: M13 phage coat protein pIX (MSVL...)
B26: SEQ ID NO: 40 (S19 hit, pIX phage) (peptide)
chain: GGGAFCRLDFNQWLTCLVGGGSGGSGG
notes: as for B2
B27: SEQ ID NO: 41 (S19 hit, pIX phage) (peptide)
chain: GGGCDCREAVSASLVCRYGGGSGGSGG
notes: as for B2
B28: P178 phage (S17, pIX) (peptide)
chain: GGGRWCYFWWITICELGGGSGGSGG
notes: pIX phagemid display; also called PP178; not shown: M13 phage coat protein pIX (MSVL...)
B29: P177 phage (S16, pIX) (peptide)
chain: GGGDACTMVFLWCSLGGGSGGSGG
notes: pIX phagemid display; also called PP177; not shown: M13 phage coat protein pIX (MSVL...)
B30: SEQ ID NO: 19 (S15 hit, pIX phage) (peptide)
chain: GGGGADTLPDLLCWESSLGGGSGGSGG
notes: as for B2
B31: SEQ ID NO: 12 (S15 hit, pIX phage) (peptide)
chain: GGGVSGILPILVCHPAATGGGSGGSGG
notes: as for B2
B32: SEQ ID NO: 21 (S15 hit, pIX phage) (peptide)
chain: GGGLPDLICAVDSGTSGAGGGSGGSGG
notes: as for B2
B33: SEQ ID NO: 15 (S15 hit, pIX phage) (peptide)
chain: GGGNWFSLPTLLCFPLNPGGGSGGSGG
notes: as for B2
B34: SEQ ID NO: 14 (S15 hit, pIX phage) (peptide)
chain: GGGHVSLQSLPELICVVSGGGSGGSGG
notes: as for B2
B35: SEQ ID NO: 11 (S15 hit, pIX phage) (peptide)
chain: GGGELGLPTLLCWPTDTLGGGSGGSGG
notes: as for B2
B36: SEQ ID NO: 18 (S15 hit, pIX phage) (peptide)
chain: GGGPIFSSLPVLYCTSQLGGGSGGSGG
notes: as for B2
B37: SEQ ID NO: 17 (S15 hit, pIX phage) (peptide)
chain: GGGPIDDESLPVLYCVTSGGGSGGSGG
notes: as for B2
B38: SEQ ID NO: 20 (S15 hit, pIX phage) (peptide)
chain: GGGTVFTLPELVCVVAGTGGGSGGSGG
notes: as for B2
B39: SEQ ID NO: 10 (S15 hit, pIX phage) (peptide)
chain: GGGYRLFVDESIFFCTRLGGGSGGSGG
notes: as for B2
B40: SEQ ID NO: 16 (S15 hit, pIX phage) (peptide)
chain: GGGSTITSLPTLQCWPILGGGSGGSGG
notes: as for B2

target: T1, sEGFR-MMB (dimeric sEGFR mimetibody) (human); test: ELISA, luminescence; sEGFR-MMB immobilized, MMB titrated
T1 construct: Disulfide linked homodimer, expressed in 293E cells; also called sEGFR-Fc
T1 sequence (chain, as listed by the source limits assumed): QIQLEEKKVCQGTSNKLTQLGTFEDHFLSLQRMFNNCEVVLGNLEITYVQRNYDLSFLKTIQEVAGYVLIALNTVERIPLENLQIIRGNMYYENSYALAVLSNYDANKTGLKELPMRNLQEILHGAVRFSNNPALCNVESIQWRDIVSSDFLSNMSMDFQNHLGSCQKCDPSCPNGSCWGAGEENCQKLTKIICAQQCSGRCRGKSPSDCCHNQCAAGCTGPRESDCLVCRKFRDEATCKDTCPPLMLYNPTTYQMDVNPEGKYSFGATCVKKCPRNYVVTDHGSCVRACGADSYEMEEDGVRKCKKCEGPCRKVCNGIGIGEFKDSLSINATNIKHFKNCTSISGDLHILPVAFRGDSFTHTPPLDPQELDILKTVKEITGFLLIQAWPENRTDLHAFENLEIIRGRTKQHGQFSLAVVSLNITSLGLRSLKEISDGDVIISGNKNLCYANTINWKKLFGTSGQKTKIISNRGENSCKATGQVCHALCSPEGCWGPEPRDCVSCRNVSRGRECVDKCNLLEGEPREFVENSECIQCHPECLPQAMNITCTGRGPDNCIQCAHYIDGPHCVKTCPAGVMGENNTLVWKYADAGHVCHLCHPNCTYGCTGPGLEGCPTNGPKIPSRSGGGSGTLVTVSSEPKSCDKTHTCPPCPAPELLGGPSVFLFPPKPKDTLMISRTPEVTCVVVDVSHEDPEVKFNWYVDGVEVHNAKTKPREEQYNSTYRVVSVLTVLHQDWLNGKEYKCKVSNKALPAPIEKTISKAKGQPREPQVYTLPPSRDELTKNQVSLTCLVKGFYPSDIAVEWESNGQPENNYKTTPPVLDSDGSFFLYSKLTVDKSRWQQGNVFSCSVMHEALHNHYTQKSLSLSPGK

Q: Does B1 bind?
A: binds

target: T1, sEGFR-MMB (dimeric sEGFR mimetibody); test: phage ELISA on coated sEGFR-MMB, chemiluminescence (background typically <200 units)

Q: With B2 as the binder, how does the ELISA signal read?
A: 6380 units

Q: Which ELISA signal does the source give for B3 here?
A: 53200 units

Q: Which ELISA signal does the source give for B4 here?
A: 17100 units

Q: For B5, which ELISA signal is on record?
A: 37900 units

Q: B6 was tested. Which ELISA signal did it give?
A: 4750 units

Q: Which ELISA signal does the source give for B7 here?
A: 22000 units

Q: B8 was tested. Which ELISA signal did it give?
A: 19800 units

Q: How did the ELISA signal turn out when B9 was run?
A: 9110 units

Q: Which ELISA signal does the source give for B10 here?
A: 31500 units

Q: Which ELISA signal does the source give for B11 here?
A: 13300 units

Q: For B12, which ELISA signal is on record?
A: 3200 units

Q: B13 was tested. Which ELISA signal did it give?
A: 35300 units

Q: For B14, which ELISA signal is on record?
A: 30700 units

target: Streptavidin alone; test: phage ELISA, luminescence; streptavidin-coated wells without receptor [panel C]
Method: Confirmatory Phage ELISA. Phage were amplified in XL-1 Blue host cells and purified by precipitation with 6% polyethylene glycol-8000/0.5 M sodium chloride. The precipitated phage were resuspended in phosphate-buffered saline in a volume that was 1/100th the original culture volume. […] The binding reaction was incubated for 1 hr at room temperature, and then bound phage were detected with anti-M13/HRP as above. For ELISAs with biotinylated receptors, streptavidin at 5 μg/ml was coated in the wells overnight at 4° C. […] The wells were rinsed with TBS-T and then blocked with Starting Block. Bound phage were washed and detected with anti-M13/HRP as described above.

Q: Does B15 bind?
A: no binding

Q: Does B16 bind?
A: no binding

target: T1, sEGFR-MMB (dimeric sEGFR mimetibody); test: phage ELISA on coated sEGFR-MMB, chemiluminescence (background typically <200 units); remark: another data set of the same source

Q: How did the ELISA signal turn out when B17 was run?
A: 4510 units

Q: For B18, which ELISA signal is on record?
A: 9540 units

Q: How did the ELISA signal turn out when B19 was run?
A: 6620 units

Q: B20 was tested. Which ELISA signal did it give?
A: 5420 units

Q: For B21, which ELISA signal is on record?
A: 4800 units

Q: For B22, which ELISA signal is on record?
A: 4770 units

target: T2, Human extracellular EGFR-His6 (sEGFR-His6) (human, UniProt P00533 25-645); test: phage ELISA, coated sEGFR-His6
T2 construct: Monomer, expressed in HEK293E cells, glycosylated; also called sEGFR-6×His; monomeric sEGFR
Method: (§1) The plates were held overnight at room temperature, washed twice with TBST (0.5M Tris Base, 9% NaCl, 0.05% tween, pH 7.6), and loaded with 200 μL per well of Starting Block (Pierce). […] The plates were held at room temperature for 1.5 hours for blocking. Plates were then washed twice with TBST and phage were added. The phage solutions were crude phage supernatant from overnight cultures diluted four-fold with Starting Block. After a one-hour incubation, the plates were washed thrice with TBST and 100 μL of a 1:5000 dilution of phage binding antibody conjugate (a-M13-HRP) was added to the wells. […] After a one-hour incubation the plates were washed five times with TBST, 100 μL of POD (BM Chemiluminescence ELISA substrate; Roche Applied Science) was added, and chemiluminescene recorded.

Q: Does B23 bind?
A: no binding

target: T1, sEGFR-MMB (dimeric sEGFR mimetibody); test: phage ELISA on coated sEGFR-MMB, chemiluminescence (background typically <200 units); remark: another data set of the same source

Q: For B24, which ELISA signal is on record?
A: 1290 units

Q: How did the ELISA signal turn out when B25 was run?
A: 8810 units

Q: For B26, which ELISA signal is on record?
A: 2580 units

Q: B15 was tested. Which ELISA signal did it give?
A: 14000 units

Q: How did the ELISA signal turn out when B27 was run?
A: 3350 units

target: T1, sEGFR-MMB (dimeric sEGFR mimetibody); test: as above; remark: another data set of the same source
Method: The protein solution was removed and wells were rinsed twice with Tris-Buffered Saline containing 0.05% Tween-20 (TBS-T) using a plate washer (Embla). The wells were blocked with Starting Block in TBS for 1 hr at room temperature and rinsed twice with TBS-T. An equal volume of phage supernatant and Starting Block in TBS were incubated in the wells for 1 hr at room temperature, and the wells were rinsed five times with TBS-T. Anti-M13/horseradish peroxidase conjugate (Amersham), diluted 1:5000 in Starting Block in TBS, was added into the wells and incubated for 1 hour at room temperature, and then the wells were rinsed five times with TBS-T. Finally, chemiluminescent peroxidase substrate (Roche) was added to the wells, and chemiluminescence was measured on a Tecan plate reader.

Q: B28 was tested. Which ELISA signal did it give?
A: 7910 units

Q: With B29 as the binder, how does the ELISA signal read?
A: 8660 units

target: T3, Control-MMB (CNTO 360) (Homo sapiens (Human), UniProt P0DOX5 111-449 = IgG part); test: phage ELISA, luminescence; Control-MMB coated on the wells [panel A]
T3 construct: Described as human IgG1 heavy chain dimer absent the variable and most of the CH1 domains; also called blank mimetibody scaffold protein

Q: Does B15 bind?
A: no binding

Q: Does B16 bind?
A: no binding

target: T1, sEGFR-MMB (dimeric sEGFR mimetibody); test: phage ELISA on coated sEGFR-MMB, chemiluminescence (background typically <200 units); remark: another data set of the same source

Q: With B30 as the binder, how does the ELISA signal read?
A: 5720 units

Q: Which ELISA signal does the source give for B31 here?
A: 1110 units

Q: For B32, which ELISA signal is on record?
A: 1160 units

Q: B33 was tested. Which ELISA signal did it give?
A: 3670 units

Q: B34 was tested. Which ELISA signal did it give?
A: 1360 units

Q: For B35, which ELISA signal is on record?
A: 9380 units

Q: For B36, which ELISA signal is on record?
A: 1420 units

Q: B37 was tested. Which ELISA signal did it give?
A: 1780 units

Q: Which ELISA signal does the source give for B38 here?
A: 1520 units

Q: How did the ELISA signal turn out when B39 was run?
A: 3080 units

Q: For B16, which ELISA signal is on record?
A: 6790 units

Q: How did the ELISA signal turn out when B40 was run?
A: 13300 units

target: T4, biotinylated sEGFR-His6 (human, UniProt P00533 25-645, biotinylated (reagent and sites not stated)); test: phage ELISA, luminescence; biotinylated receptor captured on streptavidin [panel C]
T4 construct: Captured on streptavidin in the ELISA; also called b-sEGFR-His; b-sEGFR-His6

Q: Does B16 bind?
A: no binding

target: T3, Control-MMB (CNTO 360); test: phage ELISA, protein coated at 5 ug per mL

Q: Does B23 bind?
A: no binding

target: T1, sEGFR-MMB (dimeric sEGFR mimetibody); test: phage ELISA, protein coated at 5 ug per mL, chemiluminescence
Method: as §1

Q: With B23 as the binder, how does the “Relative Signal” value read?
A: 3940

target: T2, Human extracellular EGFR-His6 …; test: as above
Method: as §1

Q: With B23 as the binder, how does the “Relative Signal” value read?
A: 6
